Assay results: paper PMC4164784, “4E-BPs require non-canonical 4E-binding motifs and a lateral surface of eIF4E to repress translation” (Nature Communications, 2014)
No end group written: not given here.

Experiments:
eIF4E (residues 69–248) = assay: MBP pull-down of purified eIF4E (69–248); format: binding, Drosophila melanogaster; details: MBP- and GB1-tagged fragments, 1 h at 4 °C, SDS–PAGE Coomassie, no eIF4G present
Procedure: In Fig. 2c, eIF4G (residues 578–650) and the C+NC peptides of CUP, Thor and 4E-T were expressed with a N-terminal MBP and a C-terminal GB1 tag. The bacterial cells were resuspended in 5 ml of lysis buffer containing 50 mM HEPES (pH 7.2), 200 mM NaCl and 2 mM DTT and lysed by sonication. Purified eIF4E (residues 69–248) was added to the cleared lysates (40–80 μl), adjusted to 0.3 ml with lysis buffer and incubated with 30 μL of amylose resin for 1 h at 4 °C. The beads were washed three times with lysis buffer and eluted with 64 μl of the same buffer containing 25 mM maltose. The proteins were analyzed by 15% SDS–PAGE followed by Coomassie blue staining.

[1] = target: T1, eIF4E–eIF4G complex (eIF4E WT; eIF4G residues 578–650) (Drosophila melanogaster, UniProt P48598); assay: Competition assay, displacement of GST-eIF4G from preassembled eIF4E (WT)–eIF4G complexes; format: biochemical; details: Fig. 5a,c; fivefold molar excess of MBP-tagged competitor, 30 min at 4 °C, m7GTP or Strep-Tactin pull down
T1 construct: full-length eIF4E (WT or the II-AA mutant) containing an N-terminal SNH-tag was coexpressed; made in house; host or cells: E. coli BL21 Star (DE3), coexpression
T1 sequence (P48598 1-248 isoform P48598-2): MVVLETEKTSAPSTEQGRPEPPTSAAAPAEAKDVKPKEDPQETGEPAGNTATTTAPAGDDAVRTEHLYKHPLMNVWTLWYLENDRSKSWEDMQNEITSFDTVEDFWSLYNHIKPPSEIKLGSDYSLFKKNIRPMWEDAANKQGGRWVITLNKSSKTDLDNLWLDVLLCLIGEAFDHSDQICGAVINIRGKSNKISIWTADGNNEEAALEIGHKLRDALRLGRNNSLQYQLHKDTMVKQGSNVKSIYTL
Procedure: For the competition assays shown in Figs 5a,c and 6a,b, complexes containing SHN- or MBP-tagged eIF4E (WT or II-AA mutant) bound to GST-eIF4G (residues 578–650), GST-Thor (full length), GST-4E-T (residues 1–58) or GST-CUP (311–440) were obtained by coexpressing the corresponding proteins in E. coli BL21 (DE3) STAR cells (30 ml culture). The cells were resuspended in lysis buffer (5 ml) that was supplemented with EDTA-free protease inhibitor (Roche) and 1 mg ml^−1 lysozyme and lysed by sonication. The cleared lysates were incubated with 400 μl of Protino Glutathione Agarose 4B (Macherey-Nagel) for 1 h. The beads were washed three times with lysis buffer, and the proteins were eluted after 10 min of incubation with lysis buffer containing 25 mM L-glutathione. The protein complexes were stored at −20 °C or used in competition assays.
The purified recombinant complexes were mixed with excess amounts of the indicated purified competitor proteins (Fig. 5c) or with bacterial lysates expressing the competitor proteins (Figs 5a and 6) and incubated for 30 min at 4 °C. After incubation, 20 μl of immobilized γ-Aminophenyl-m^7GTP or Strep-Tactin Sepharose (IBA), were added to the samples and incubated for another 40 min at 4 °C. The beads were washed three times with lysis buffer and eluted with lysis buffer containing 2.5 mM desthiobiotin (Strep-Tactin Sepharose) or with 20 μl of SDS–PAGE loading buffer (Aminophenyl-m^7GTP beads). The proteins were analyzed by 10–15% SDS–PAGE followed by staining with Coomassie blue staining. […]

[2] = target: T2, SHN-eIF4E (full length, II-AA mutant) (Drosophila melanogaster, UniProt P48598-2 1-248, Ile96 to Ala (II-AA) | Ile112 to Ala (II-AA)); assay: pull-down; preassembled complexes of SHN-eIF4E (WT or II-AA) with GST-eIF4G, GST-CUP, GST-Thor or GST-4E-T (coexpressed, purified on glutathione agarose) recovered on Strep-Tactin beads; details: both partners purified
T2 construct: eIF4E, Drosophila melanogaster; also called SHN-tagged eIF4E II-AA; not shown: Strep-NusA-His (SHN), N-terminal, kept
T2 sequence (looked up): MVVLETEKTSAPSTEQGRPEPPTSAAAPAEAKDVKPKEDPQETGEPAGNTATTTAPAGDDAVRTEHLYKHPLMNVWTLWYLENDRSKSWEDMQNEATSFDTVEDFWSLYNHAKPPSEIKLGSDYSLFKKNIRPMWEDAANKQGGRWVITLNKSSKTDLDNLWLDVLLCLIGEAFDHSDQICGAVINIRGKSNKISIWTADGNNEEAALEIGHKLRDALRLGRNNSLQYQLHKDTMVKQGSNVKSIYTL

[3] = target: T3, SHN-eIF4E (full length, WT) (Drosophila melanogaster, UniProt P48598-2 1-248); assay: as above; details: both partners purified
T3 construct: eIF4E, Drosophila melanogaster; also called SHN-tagged eIF4E; SNH-tagged eIF4E; not shown: Strep-NusA-His (SHN), N-terminal, kept
T3 sequence (looked up): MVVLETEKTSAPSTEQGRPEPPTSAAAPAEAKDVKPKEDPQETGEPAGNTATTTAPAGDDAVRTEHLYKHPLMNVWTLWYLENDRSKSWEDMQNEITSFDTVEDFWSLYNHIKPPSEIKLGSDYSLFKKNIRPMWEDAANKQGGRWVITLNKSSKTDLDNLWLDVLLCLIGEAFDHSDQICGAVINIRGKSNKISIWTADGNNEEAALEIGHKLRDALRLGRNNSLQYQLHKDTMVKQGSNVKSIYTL

[4] = system: endogenous eIF4E and HA-tagged 4E-BPs in S2 cells; assay: Immunofluorescence localization in S2 cells; format: cell-based, Drosophila melanogaster
[5] = system: eIF4E II-AA mutant (full length); assay: GST/MBP pull-down of full-length eIF4E II-AA mutant, coexpressed in E. coli; format: binding, Drosophila melanogaster; details: recombinant CUP (311–440), Thor (full length), 4E-T (1–58) or eIF4G (578–650), WT or mutant, SDS–PAGE
Procedure: For the pull-down assays shown in Fig. 3 and Supplementary Fig. 6a, the full-length His6- or SHN-tagged eIF4E (WT or II-AA mutant) was coexpressed with GST or MBP-tagged protein fragments, including CUP (residues 311–440), Thor (full length), 4E-T (residues 1–58) or eIF4G (residues 578–650) in E. coli BL21 (DE3) STAR cells in autoinducing medium[44] overnight at 20 °C. The cells were resuspended in lysis buffer (20 mM Tris–HCl (pH 7.5), 100 mM NaCl, 1 mM DTT) supplemented with EDTA-free protease inhibitor (Roche) and lysed by sonication. The cleared lysates were incubated for 1 h with 20 μl of Protino Glutathione Agarose 4B beads (Macherey-Nagel) or amylose resin (New England Biolabs). The beads were washed three times with lysis buffer, and the bound proteins were eluted with lysis buffer containing 25 mM L-glutathione or 25 mM maltose for 15 min. The proteins were analyzed by 10–15% SDS–PAGE followed by Coomassie blue staining.

[6] = system: eIF4E II-AA (lateral surface mutant); assay: Coimmunoprecipitation with HA-eIF4E II-AA in S2 cells; format: cell-based, Drosophila melanogaster; details: HA-eIF4E II-AA vs WT, western blot
Procedure: The coimmunoprecipitations assays were performed as previously described. For the pull downs using m^7GTP beads, 25 μl of immobilized γ-aminophenyl-m^7GTP (C10-spacer—Jena Bioscience) beads was added to the cell lysates and the mixtures were rotated for 1 h at 4 °C. The beads were washed three times with NET buffer (50 mM Tris (pH 7.4), 150 mM NaCl, 1 mM EDTA and 0.1% Triton X-100). The bound proteins were eluted with 2 × SDS–polyacrylamide gel electrophoresis (SDS–PAGE) sample buffer and analyzed by western blotting (WB). All of the WB experiments were developed with the ECL western blotting detection system (GE Healthcare) as recommended by the manufacturer. The antibodies used in this study are listed in Supplementary Table 2.

[7] = system: eIF4E W106A (dorsal surface mutant); details: known effect of W106A substitution; cited from earlier work
endogenous eIF4E = assay: Coimmunoprecipitation / m7GTP pull-down with endogenous eIF4E in S2 cell lysates; format: cell-based, Drosophila melanogaster; details: western blot
How it was run: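 S2 cell lysates expressing HA-tagged 4E-BPs (CUP, Thor, 4E-T), eIF4G or mutants, immunoprecipitated with anti-eIF4E or anti-HA antibodies, or pulled down with m7GTP beads for 1 h at 4 °C. Washes in NET buffer (50 mM Tris pH 7.4, 150 mM NaCl, 1 mM EDTA, 0.1% Triton X-100). Bound proteins detected by anti-HA/anti-eIF4E western blot; pre-immune serum and HA-MBP as negative controls.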

[8] = target: T3, SHN-eIF4E (full length, WT); assay: pull-down; competition: purified SHN-eIF4E–GST-eIF4G complex with fivefold molar excess of purified MBP-Thor, 30 min at 4 °C; Strep-Tactin beads; details: both partners purified

Molecule: CUP NC: CUP residues 362–376, non-canonical motif, MBP/GB1 fusion (IELEGRLRRMNIWRT; also: MBP/GB1 fusion; UniProt Q9VMA3 362-376, looked up, fragment)
- pull down of purified eIF4E (in words) (eIF4E (residues 69–248)): bind to eIF4E in the absence of eIF4G
- competition with eIF4G for eIF4E WT (in words) [1]: did not compete with eIF4G

B1: GST-CUP (residues 311–440) (domain or fragment, Drosophila melanogaster, UniProt Q9VMA3 311-440, looked up)
chain: VRPTTAPVVSSKPVKSYTRSRLMDIRNGMFNALMHRSKESFVMPRIATCDDIELEGRLRRMNIWRTSDGTRFRTRSTTANLNMNNNNNNECMPAFFKNKNKPNLISDESIIQSQPPQPQTEFQDPAIVNQ
notes: CUP, Drosophila melanogaster, residues 311–440; may be the same construct as m25; source: E. coli BL21 (DE3) STAR, coexpressed with SHN-eIF4E, complex purified on glutathione agarose
- binding result [2]: binds
- binding result [3]: binds

B2: CUP: Dm CUP (1–1117), Q9VMA3; residues 311–440 in pull-down assays (protein)
chain: MQMAEAEQENGAGALKIATNAGATDRPAHQQLPLPVEDQQDEVLTPAEKGKFEYPPPPPPPTPVQAPLATKATALNASQEHDDDEANSEKWEDPCAPPPPPPLPTSAFLATGLGYLKLPAFKLKDALEKAITKLEANKRTLKASPESSRSIKNKNVVALEMLPRRSNPETIGDGSMLASTSTAVMLQTKKPAVIVEMERRCKIINLLAKQNQILESISGEAIPMHGPSKHLHEDEGLTLQVLSARASTPYTQPSSMLSCTAVSCDLEHDSPRKQVASKEAVPEQQSSQVQQKRPPSTGIHKPGSLRAPKAVRPTTAPVVSSKPVKSYTRSRLMDIRNGMFNALMHRSKESFVMPRIATCDDIELEGRLRRMNIWRTSDGTRFRTRSTTANLNMNNNNNNECMPAFFKNKNKPNLISDESIIQSQPPQPQTEFQDPAIVNQRRIGSGRLNHSKWGYNDEDYHSYHNGKSQHMEEVNSKNSKNMTVLQFFDNGEISSQPQRRPNTPVMGMSINRSENDTLHSNESSEDLSRANENYVKRVMSGFLVVSKPKSRDVEDRHHRRYRNQNEEPEWFSCGPTSRLDTIELCGFDEDEEKMLKEGNKNHGLGETERETSKQKMDHKYKWTHAEPMGRSKYMPKHDTNNNHNVENMNNVMATEHQQQKEEKRPGSGRSFQFDKFNQSQQNYESSSYVNHQQPPQTQPQQMQQQSNTNTNNSKFMSFFANEGNSSSSSLNEFFKQAINQGHGNNPEQPKSLGHIGQMPSVDQLEAKWRRNSLNNVGETANKQTDNFQKLIGSLSSAKPQSQAVGYDAISNFIMQQQQYQQQQQKQHLIIQQQQQHTAFLASLQLKAILGRADTQLLLLRLTKGEISKHGLLVQLANPRLTDMDREAITAVLQFTNTQQQQQQHKQQLDMLSSTVIASQLQNLHNLAIVQQTLAARQQPQHNPQTQAPHQLSQEDLQAHANVIMRNAVMKRKIEEQTSKLINGGAKHQAQQQYLNRGQQRQARPDANSNALLHALISGGGNNHASGYPMNGQPQKHHSNLRFGDNQNFQSFESNQPHFATQYKQQYQQSQQQHPHQQPQQLNSLHQNNAGAVNSFNKAQMQAQSAISMLPNSGDEFH
modifications: left off: GFP, end not stated, kept
notes: Dm CUP (1–1117), Q9VMA3; residues 311–440 in pull-down assays
- nuclear accumulation of endogenous eIF4E upon LMB (in words) ([4]; S2 cells expressing 4E-BP or mutant, LMB 100 nM, 12 h): endogenous eIF4E accumulated in the nucleus
- localization of endogenous eIF4E (in words) ([4]; S2 cells overexpressing 4E-BP or mutant, −LMB): evenly distributed in the cytoplasm
- nuclear accumulation of 4E-BP upon LMB (in words) ([4]; S2 cells, LMB 100 nM, 12 h): nuclear accumulation
- localization of the 4E-BP (in words) ([4]; S2 cells, steady-state, −LMB): distributed evenly throughout the cytoplasm
- binding to eIF4E II-AA mutant (in words) [5]: pulled down comparable amounts of WT and mutant eIF4E
- association with eIF4E II-AA (in words) [6]: disrupted the association
- binding to eIF4E W106A (in words) [7]: abolishes the binding
- interaction with endogenous eIF4E (in words) (endogenous eIF4E): interacted with endogenous eIF4E

B3: MBP-Thor (full length, WT) (natural protein, Drosophila melanogaster, UniProt Q9XZ56 1-117, looked up)
chain: MSASPTARQAITQALPMITRKVVISDPIQMPEVYSSTPGGTLYSTTPGGTKLIYERAFMKNLRGSPLSQTPPSNVPSCLLRGTPRTPFRKCVPVPTELIKQTKSLKIEDQEQFQLDL
notes: Thor, Drosophila melanogaster; not shown: MBP, N-terminal, kept
- binding result [8]: binds
